Source: US20090318350A1, “PAN-HER ANTAGONISTS AND METHODS OF USE” (published 2009)

B1: EGF (purified protein) (ligand)
chain: HHHHHHIEGRNSDSECPLSHDGYCLHDGVCMYIEALDKYACNCWGYIGERCQYRDLKWWELR
B2: Heregulin (purified protein) (ligand)
chain: SHLVKCAEKEKTFCVNGGECFMVKDLSNPSRYLCKCPNEFTGDRCQNYVMASFYKHLGIEFMEAEELY

Tests used:
[1] = target: human epidermal growth factor receptor (EGFR) (human, UniProt P00533); experiment: cell-based or functional assay
HER3 receptor = HER3 receptor (human, UniProt P21860); experiment: cell-based or functional assay

Binder | Calculated cell proliferation (EC50; picomolar) [1] | Calculated cell proliferation (EC50; picomolar) (HER3 receptor)
B1 | 1150 picomolar | –
B2 | – | 6150 picomolar
